Measurements from PMC11430614, “Bacterial Purine Nucleoside Phosphorylases from Mesophilic and Thermophilic Sources: Characterization of Their Interaction with Natural Nucleosides and Modified Arabinofuranoside Analogues” (Biomolecules, 2024).

Assays:
[1] = tested on: Nc1ncnc2c1ncn2[C@@H]1O[C@H](CO)[C@@H](O)[C@H]1O; experiment: purified protein; conditions: 50 mM KH2PO4, pH 7.5, 25 °C, phosphorolysis
[2] = tested on: T1, EntPNP (PNP from Enterobacter); experiment: HPLC phosphorolysis assay, Michaelis-Menten fit; assay type: biochemical, Enterobacter sp.; conditions: 50 mM KH2PO4, pH 7.5, 25 °C, tested up to 4 mM, no plateau
T1 construct: commercial preparation (Sigma-Aldrich); acts on 6-oxopurine nucleosides only
Source text: HPLC phosphorolysis assay, Michaelis-Menten fit on EntPNP (PNP from Enterobacter)

[3] = tested on: T1, EntPNP (PNP from Enterobacter); experiment: coupled xanthine oxidase assay, […] nm, Michaelis-Menten fit; assay type: biochemical, Enterobacter sp.; conditions: 50 mM KH2PO4, pH 7.5, 25 °C; phosphorolysis
[4] = substrate: O=c1[nH]cnc2c1ncn2[C@@H]1O[C@H](CO)[C@@H](O)[C@@H]1O; experiment: HPLC phosphorolysis assay, Michaelis-Menten fit; assay type: biochemical, Escherichia coli; conditions: 50 mM KH2PO4, pH 7.5, 25 °C, tested up to 4 mM, no plateau
Source text: HPLC phosphorolysis assay, Michaelis-Menten fit on EcPNP

purified protein = substrate: OC[C@H]1O[C@@H](n2cnc3c(O)ncnc32)[C@H](O)[C@@H]1O; experiment: purified protein; assay type: biochemical, Escherichia coli; conditions: 50 mM KH2PO4, pH 7.5, 25 °C, phosphorolysis

EcPNP (Escherichia coli K-12)
Km [1]: 21 ± 5 µM
kcat [1]: 137.7 s⁻¹

O=c1[nH]cnc2c1ncn2[C@@H]1O[C@H](CO)[C@@H](O)[C@@H]1O [9-(β-D-arabinofuranosyl)hypoxanthine]
Km [2]: 2.9 ± 0.831 mM

O=c1[nH]cnc2c1ncn2[C@@H]1O[C@H](CO)[C@@H](O)[C@H]1O [inosine]
Km [3]: 107 ± 21 µM

B1: EcPNP (Escherichia coli K-12) (protein)
chain: ATPHINAEMGDFADVVLMPGDPLRAKYIAETFLEDAREVNNVRGMLGFTGTYKGRKISVMGHGMGIPSCSIYTKELITDFGVKKIIRVGSCGAVLPHVKLRDVVIGMGACTDSKVNRIRFKDHDFAAIADFDMVRNAVDAAKALGIDARVGNLFSADLFYSPDGEMFDVMEKYGILGVEMEAAGIYGVAAEFGAKALTICTVSDHIRTHEQTTAAERQTTFNDMIKIALESVLLGDKE
notes: recombinant from plasmid pER-EcPNP, host E. coli ER2566
Km [4]: 1810 ± 371 µM
kcat [4]: 0.709 s⁻¹
Km (purified protein): 76 ± 21 µM
kcat (purified protein): 29.2 s⁻¹
